This assay addresses Fibronectin (FN) purified from human plasma (human). Briefly: ELISA.

With “Full-length MMP-2^E404A (catalytically inactive, ligand-binding matrix metalloproteinase-2) (from UniProt P08253 30-660) (enzyme)”, the Kd came out at 20 nM.

“Isolated recombinant hemopexin-like carboxyl-terminal domain of MMP-2 (PEX) (from UniProt P08253 446-660) (domain or fragment)” displayed a Kd of 100 nM. This Kd lies about 5-fold higher than the previous one.

Broadly, the Kd is the concentration at which binding is half-saturated.
